Measurements taken from the domain aggregation screens of Martell et al. (2025).

Experiment: soluble fraction after stress (log2 fold change); higher = more stays soluble; pooled small domains, quantitative proteomics
Conditions: stress: 75 degC
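Note: 20 min heating vs room temperature control held 20 min.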

Sequence | soluble fraction (log2)
HMKIHNSIREITDFDRKQNSNIPSDAKYRIVFYTPQGNKTIIPEELQGLQYYRSKELAEIALNKKLNSN | -0.197
HMDDINVSNSKNIVPNVTGHTGSKAIPVLENLGLDVQYSGFGKVTNQSIPAGTRFKKGETIYLMLE | 0.03
HMISVTNRTGTGLNDVKVEVFPVGRQMVFSATVFRVESEATNRFSLGELRGSDGTPFNQRVHRPESI | -0.184
HMSTPENLGGRNTAKARISWLENGVKQELESDFPAAEVVKLSSRFGGEVPELTVIRPSLEDIYLKMIG | -0.00898
HMIPEGKWMEDPISEGQIKFIETLIKQAIDSGQDALGAEAKQYLSSGEATKGNASSMIDKLKDAL | 0.433
HMKDLSMPDVMGSSLNDAKKALTELGIMDITVRYVESGSSEGSIVGMEPPAGSKFAADGKVVLQVSSGS | 0.542
HMDTNTIIGLRIKALRTEKKYTLKYLSENSGLSIGFLSQLERGMTSVAIDSLDKISKVLDVELSSFFN | -3.05
HMGQVGIPFSDFLAEVENGQVREVVIKGNDISGTFNDNRGFSTYAPNDPNLVEKLTKRGVVINAQPTE | 0.077
HMAVELPLETTLDIVRKYARNQEVDRRAERVEAVSAEALQTLAPRGTKLASEIVEQAKTQVLEELA | 0.476
HMTHHGHSIKRIRDMLGIKQETLAAELNMTQQAFSKLEQKEQIEDEMLDKIAKILHVSTEALKT | 0.0102
HMEKKKVPEVAGQDEAAARNVMTNSGFVVDVEQKEDDNVPAGKVITTAPAGGVEVVEGTKIILYVSKGSN | -0.052
HMINVLTPKQIEATTIAVKYGYYENPRTVSMRELSEISGIARSTLQEHLSKAEAALMILAAKSQL | -0.365
HMTAEASELRERIRAAMATLPPAQQRVIELAYFEGLTQREIAALLNEPLGTIKTRMRLGMRKLKDVL | -2.35
HMEDVRSLTGPEKAAIILLSLGEEHGQGVWRMFDDEEVKEVSQIMANLGTISASVVEKLLVEFVSQMST | -0.96
HMRTLKDSTEYLIRSMLLRGEMKVGEIYSANALAKELNISNSPVREAMMSLVDRGLLENVRNRGFRVV | -1.83
HMNIEEQVVAEVLVKDFMKQLTPRDIHILELRKNGYTYQEIAGQLGYHTHSAVKKRVDRLAEQWLAYTQGH | -2.26

Sequence | soluble fraction (log2)
HMKRTMVEAAMVAKLFNLTVRRIQQLTQDGVLTTELVDKKRRYDLLLTVQKYIAYLQEKVAK | -3.41
HMKSISMANGNVQLRINGVLASSLEVAALSPEDIKRVEYHDNPGLRYGEGIDIVLDYITIKRT | -0.754
HMVMVVDVLKALSNNSSDKFFNTSISNAIKAQEDSQEDFVTLFGIEYEKLSPNNGLAVIFTSQ | 0.865
HMGQAAHYEGVKGDGESDTDVISRVLTAAGAEAQKDDIFVVKELIAGGKYSYTAYVYDGSVWAAM | -0.529
HMWSNTAVIDRIRQLHEEGQPISSQSVQVNHKSLYMAAIKRFRGWKRAVEAAGIDYRQIRLR | -2.29
HMADVSPEAQHKMVEAFAQFGVTKEHIEQRIQRRLDAIQPAQMVTLKRIFASLRDGMSTPAEWFE | -0.639
HMPAERLSMRKIYEILRLKYGHGLSNREVALSVSVSRSTVADYLLRAQAAGLSWPLPDGLDETGLEQRLFP | -3.96
HMGRWQPSTSAKQHGESALLLERLLHLERLTVSEAFHVLTINHRLNLSLPEYRSLLAVVQLPK | -1.8
HMEYTVNRLAQISGVSKRTLRYYDEIGLLRPERVNPNGYRIYGQMQVDLLQQILFYRELGLPLEEIREII | -0.502
HMIKRITDEQHPVDVDRLLVVTFTNAAASEMRERIGDAIEAALEKDPYNQHLQRQLTLVHNAQITTIDS | 0.171
HMGYDSYDADTIPKLKIGSIVEHPKFGEGSIISKAGAEVTIAFKIKGVKKINLEYTSIKVLK | -1.67
HMLTTADLMMVHANSNKAIDYIVTDDNTKLTVDEPVTAKWITTADSIYRAVAYYNKVGDGKAQIVSVGN | -0.0103
HMTTYTGVVTGSGVNVRSGAGTSYPVVGSKTMGDVVTITETVSADGMIWGKIDIGWISMNYVRM | -2.75
HMSYPEIFQSLTEREQKIADMIAEHLSNKEIAEKMFLSEGTIKQYINQIYSKLQITGDIRNKRKQLIELFH | -1.62
HMGNQALSSVLSDIAGIGPVKTKELLRVYPDLDSLRQAPVEEVAKVKGIGRQLAQKIHDHFSSR | -0.0292
